Data taken from patent US20210060169A1.
Residue numbers refer to the chain shown, from its start.

B1: 8His-S4(oAzZK)-Li30/F78(oAzZK)-Li30 (ligand)
chain: MHHHHHHHHAPTKSSTKKTQLQLEHLLLDLQMILNGINNYKNPKLTRMLTFKFYMPKKATELKHLQCLEEELKPLEEVLNLAQSKNKHLRPRDLISNINVIVLELKGSETTFMCEYADETATIVEFLNRWITFSQSIISTLT
B2: 8His-S4(oAzZK)-Li30/I129(oAzZK)-Li30 (ligand)
chain: B1 chain with K87F, I138K
B3: 8His-S4(oAzZK)-Y50/I129(oAzZK)-Y50 (ligand)
chain: B1 chain with K87F, I138K

What was measured:
human IL-2Rαβγ (human) = human IL-2Rαβγ (human) (UniProt P01589); experiment: cell-based or functional assay
Sequence of human IL-2Rαβγ (human) (P01589 22-272, chain 1 of 3): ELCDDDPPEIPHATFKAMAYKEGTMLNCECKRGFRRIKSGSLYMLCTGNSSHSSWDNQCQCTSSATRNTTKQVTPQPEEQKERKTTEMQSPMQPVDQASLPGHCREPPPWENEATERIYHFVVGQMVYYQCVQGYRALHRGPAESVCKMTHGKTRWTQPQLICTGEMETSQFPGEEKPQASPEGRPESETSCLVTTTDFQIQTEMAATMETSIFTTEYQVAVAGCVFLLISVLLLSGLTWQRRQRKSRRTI
Sequence of human IL-2Rαβγ (human) (P14784 27-551, chain 2 of 3, further chain): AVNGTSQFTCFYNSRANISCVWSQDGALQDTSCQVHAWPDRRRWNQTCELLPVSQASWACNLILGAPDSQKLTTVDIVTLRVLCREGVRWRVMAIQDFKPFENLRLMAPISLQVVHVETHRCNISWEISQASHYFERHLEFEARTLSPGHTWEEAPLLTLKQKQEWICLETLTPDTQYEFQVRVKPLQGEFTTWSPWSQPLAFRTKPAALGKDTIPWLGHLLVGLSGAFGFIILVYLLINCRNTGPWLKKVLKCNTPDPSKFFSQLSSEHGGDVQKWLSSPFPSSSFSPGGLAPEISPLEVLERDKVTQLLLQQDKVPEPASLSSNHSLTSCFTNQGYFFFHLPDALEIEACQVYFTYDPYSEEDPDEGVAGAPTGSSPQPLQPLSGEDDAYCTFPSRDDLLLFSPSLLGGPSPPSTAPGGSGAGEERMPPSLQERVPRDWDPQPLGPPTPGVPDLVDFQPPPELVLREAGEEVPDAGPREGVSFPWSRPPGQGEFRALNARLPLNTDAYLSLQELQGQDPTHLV
Sequence of human IL-2Rαβγ (human) (P31785 23-369, chain 3 of 3, further chain): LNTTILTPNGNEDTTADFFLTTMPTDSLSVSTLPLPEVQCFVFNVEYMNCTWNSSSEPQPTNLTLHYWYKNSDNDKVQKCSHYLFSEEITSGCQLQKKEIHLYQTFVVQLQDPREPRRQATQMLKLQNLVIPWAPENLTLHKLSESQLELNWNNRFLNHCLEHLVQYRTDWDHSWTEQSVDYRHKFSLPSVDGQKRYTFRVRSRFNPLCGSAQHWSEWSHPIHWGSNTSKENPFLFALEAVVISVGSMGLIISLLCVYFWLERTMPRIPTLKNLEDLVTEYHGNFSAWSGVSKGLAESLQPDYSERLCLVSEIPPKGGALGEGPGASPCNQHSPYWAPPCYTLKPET

human IL-2Rβγ (human) = human IL-2Rβγ (human) (UniProt P14784); experiment: cell-based or functional assay
Sequence of human IL-2Rβγ (human) (P14784 27-551, chain 1 of 2): as the sequence (P14784 27-551, chain 2 of 3, further chain) above
Sequence of human IL-2Rβγ (human) (P31785 23-369, chain 2 of 2, further chain): as the sequence (P31785 23-369, chain 3 of 3, further chain) above

Binder | Standardized EC50 ratio value (human IL-2Rαβγ (human)) | Treg proliferation rate at 650 to 6500 pmol/L (human IL-2Rαβγ (human)) [%] | NK cell proliferation rate at 65 nmol/L (proliferation medium) (human IL-2Rβγ (human)) [%]
B1 | > 30 | > 80 | –
B2 | > 30 | > 80 | < 20
B3 | > 30 | – | –
